From FireProtDB (doi:10.1016/0167-4838(91)90474-e)
“And” between values parts separate entries of the source, which are not always exact repeats. Equal values may be shown once.

Conditions: Gallus gallus, Absorbance, Sodium phosphate 0.06 M, reversible: yes, whole UniProt chain shown; for unfolding enthalpy (van 't Hoff): Thermal; for denaturant m value / denaturant midpoint (higher = more stable) / unfolding free energy: 25 °C, Urea

B1: Ovomucoid wild type, P01005 (protein)
chain: MAMAGVFVLFSFVLCGFLPDAAFGAEVDCSRFPNATDKEGKDVLVCNKDLRPICGTDGVTYTNDCLLCAYSIEFGTNISKEHDGECKETVPMNCSSYANTTSEDGKVMVLCNRAFNPVCGTDGVTYDNECLLCAHKVEQGASVDKRHDGGCRKELAAVSVDCSEYPKPDCTAEDRPLCGSDNKTYGNKCNFCNAVVESNGTLTLSHFGKC
pH 5
  unfolding enthalpy (van 't Hoff): 34 kcal/mol and 30 kcal/mol
pH 5, transition: 3
  unfolding enthalpy (van 't Hoff): 30 kcal/mol and 44 kcal/mol
pH 7
  denaturant m value: 1.35 kcal/mol/M and 1.15 kcal/mol/M
  denaturant midpoint (higher = more stable): 2.7 M and 2.8 M
  unfolding free energy: 4.65 kcal/mol and 3.39 kcal/mol
  unfolding enthalpy (van 't Hoff): 58 kcal/mol and 37 kcal/mol
pH 7, transition: 3
  denaturant m value: 1.01 kcal/mol/M and 1.03 kcal/mol/M and 1.02 kcal/mol/M
  denaturant midpoint (higher = more stable): 7.3 M and 2.8 M and 6.9 M
  unfolding free energy: 7.66 kcal/mol and 3.39 kcal/mol and 7.42 kcal/mol
  unfolding enthalpy (van 't Hoff): 82 kcal/mol and 54 kcal/mol and 46 kcal/mol
